Assay: soluble on expression in E. coli; label from the status in PepcDB or PDB records

Row | Sequence | soluble on expression in E. coli
1 | MSLASQSEAEVLIGVAGPMSGKLAWTGTQLRRGAEMAVANINAAGGVLGQQVRLIVADDFCDPRQALAAAEKLVADGAVFVIGHYCSGASIPASKIYAAAGVLQISPSSTNPMLTEQGHANVFRVCSRDDAQGHKAGNYLADHWGDSKIAILHDNTTYGKGLADETKKQLNMRGVTEAVYQSYTPGKDDYSVEVAALQTAHIAVLYLGGYHTEAALMVRAARDRAYPVQLISGDDTATEAFGLIAGPAAEGTLFTFVADPRRNAEAAEVVERFRAENFEPDSWTLHSYGAAEIWAQAVTKANSLDLQAVIAALREDQFDTVLGRIDFDKKGDLTVQSWVWYVWKSGEYVPVEEGHHHHHH | soluble
2 | MIGLFNDCFPPIMDGVSLTTQNYAYWLHRKAGNVCVVTPKSPDARDAEEYPVYRYSSVPIPMRKPYRLGFPRIDWPFHERISRLSFELVHAHCPFSSGALAMQIAREQHVPIVATFHSKYRADFERAIPSRLLVNYLIRKVIRFYEAADEVWIPQAAVEETLREYGYKGRIEVVDNGNDFAGTPFLQSVRQEARRTLGIRSGEFMFLFVGQHIWEKNLGFLLDSLVRLSDIPFRMYFVGSGYASHELKQKVVELGLASKVSFVGSIVEREILKRYYVAADLFLFPSLYDNAPLVIREAAALGTPSVLIRDSTASEIISDSVNGFLSPNSTEAYSNRIREILCSTAIIKQVGEEASRTIARSWEDVAGEVYDRYNRLIKRNGNKLEHHHHHH | soluble
3 | MTIIFPSPIFGPVHSRRLGVSLGINLLPEDGKVCSFDCIYCECGFNADHRPKKHLPTREEVRIALEEKLKDMQKNGPAPDVLTFAGNGEPTAHPHFPEIIEDTLALRDHYFPNAKVSVLSNSTFIDRPAVFDALNKIDNNILKLDTVNEEYIHLLDRPNGKYSVRKIIEKMKEFKGNCIVQTMFLKGSYLGKDMNNTSDEFVLPWLEAVKEIAPSQVMIYTIDRETPDHDLQKATHEELDRIVELIKRTGIPATASY | not soluble
4 | MQLTESLGIVLFNRNYREDDKLVKIFTEVAGKQMFFVKHISRSKMSSIIQPLTIADFIFKLNDTGLSYVVDYSNVNTYRYINNDIFRLAYASYVLALADAAIADNESDSHLFTFLKKTLDLMEEGLDYEILTNIFEIQILDRFGISLNFHECAICHRTDLPLDFSHRFSAVLCSEHYYKDNRRNHLDPNVIYLLSRFQKITFDDLRTISLNKDIKKKLRQFIDELYHDYVGIKLKSKTFIDNLVKWGDIMK | not soluble
5 | MSILVKNNIHWVGQRDWEVRDFHGTEYKTLRGSSYNSYLIREEKNVLIDTVDHKFSREFVQNLRSEIDLADIDYIIINHAEEDHAGALTELMAQIPDTPIYCTANAIDSINGHHHHPEWNFKVVKTGDTLDIGNGKQLIFVETPMLHWPDSMMTYMTGDAVLFSNDAFGQHYCDERLFNDEVDQTELFEQCQRYYANILTPFSRLVTPKITEILGFNLPVDMIATSHGVVWRDNPTQIVELYLKWATDYQEDRITIFYDTMSNNTRMMADAIAQGINEVDPNVAVKIFNVARSDKNEILTNVFRSKGVLVGTSTMNNVMMPKIAGLVEEMTGLRFRNKRASAFGSHGWSGGAVDRLSTRLQDAGFEMSLSLKAKWRPDLDALELCRQHGRDIARQWALAPLPETTQQIAPVEETITCTAADLGPKMQCSVCQWIYDPALGEPLQDVAPGTPWNDVPDNFLCPECSLGKDVFDVLATEAK | not soluble
6 | MGSDKIHHHHHHMAPNYMTEKWREDEEYLSYVEDLLATEEVQKLAEYTQHMHSTRLEHSISVSYHSYKLAKRWNGNARATARAGLLHDLFYYDWRTTKFDEGSHAYVHPRIAAKNAEKITELSDLERDIIIKHMWGATIAPPKYKESYIVTFVDKYCAVKEAALPMTTAMKTKWRQYFGQQSI | not soluble
7 | MPKVDVYDINGKVVGEINLRDDIFGIEVNKHAIHQVIVNQLANRRQGTQSTKTKSEVRGGGRKPWRQKGTGRARHGSIRSAQWVKGGIALGPKPRSYKYAVPKKLRRLALKSALSSKVNENELLVLDSLNFDEIKTKQMANVLKNLKVNDTTAVLVLADKNRNVELSARNIPGLKTLFVNTMNVYDIIRHDKFIITKDAVAKVEEVYA | not soluble
8 | GGIYGIGLDITELKRIASMAGRQKRFAERILTRSELDQYYELSEKRKNEFLAGRFAAKEAFSKAFGTGIGRQLSFQDIEIRKDQNGKPYIICTKLSPAAVHVSITHTKEYAAAQVVIERLSS | soluble
9 | MELLCPAGNLASLKSALQAGADAVYLGLKDDTNARSFAGLNFTPAKLQEAAELTHQRGKKIFLTLNTFPKPNEEHRWYQAIDLAAKIGVDALIVADLSLLDYAHRQYPHIPLHLSVQASATNLGALSFYKEAFNVSRVVLPRVLSMKQVRDLAKVSPVDLEVFAFGSLCIMAEGRCHLSSYVTGQSPNTGGSCSPAKHVRWQEQGQDRLTWLNEVLIDKSGLDEQMGYPVVCKGRYLTQEDDKPQYLLESPTSLNTLSLLPELAKAGIVSLKIEGRQRSPAYVEQVTKVWRQAIDTYLNHPDKFQTQAHWEQALAKVSEGQITTLGAYERNWQ | not soluble
10 | MKNNKDEKIRISIINGFLGSGKTTLLTHYISELLKNDEKIKIIMNEFGTFDIDSNSISNEIEVHSLINGCVCCDLKQELVYELKAIALKGDVNHVIIETTGIAHPLELLVACQDPQIVNFFEKPIIYGVLDATRFLERHQYTENTVSLMEDQLKLSDMIIINKIDLITDDRLERIDKQLGMICASIPTYKTTYGKVSLEELDLTVKDREISSHHHHHHGIKSMTYTFTGPIDRQLFYQFIMKLPESVLRLKGYVSFRDQPNAIYEFQYAYGLPDYGIIGMQLPLTIVIIGETLDTNHIRNQLDMLQFT | not soluble
11 | SREAVTVQVGGFANYVGSYFWNFQDELLGLADDPDADPVFKNAALDMDVLYRSGETHQGVATYCPRLVSVDSRGSLGSLSSSGNLGQSSTAADQLNVATWSGNVTRSVSKPHGRNLFLQSLVEEGQNPSTSNGGSNSQKSVEYKDLIECLENGINFWTDYSKVHYHPQSLYELYGSWTDFDKFDNYGSAQEVVSDWSQIEEMNERLRFFVEECDHIQGIQFIVDDSGGFSSVAAQFLENIADDYTNTLVLLYCVRDPMTLGPSRRNQRESIMRALHDAVSFSKLSSFCNLMVPIGPPSLSRSCMSPYLYIQDEKPFHASAVCAAAIHSITVPFRLQRTGPSSDLAHSSGNLDIGELVHILSDQGRQNMVTALDVAMPAPSLTDRDAMGNIEMKLHSLTPEISDEDEDPYSVESLVVHGALDRGGQRTSISQVKDSVCSVYEARETKPKFSHLSASLCPLPVPLPFPSIFRGNIGRHGEILSDHTEESQPKGSLDIESIPMAARLRSSSAVLPFIERRSGSLQKHGVARGAIGSLVLHDWGFGREEVEDMAEHLAKLLGPFHPEMDLTSDSD | soluble
12 | MRIVEVYSHLNGLEYIQVHLPHIWEEIQEIIVSIDAEACRTKESKEKTKQGQILYSPVALNEAFKEKLEAKGWKESRTNYYVTADPKLIRETLSLEPEEQKKVIEAAGKEALKSYNQTDFVKDRVAIEVQFGKYSFVAYDLFVKHMAFYVSDKIDVGVEILPMKELSKEMSSGISYYEGELYNVIRQGRGVPAVPLVLIGIAP | soluble
13 | MGSDKIHHHHHHMTSKITRQANASEDSLLRIFTAPEDSTSTLSIIEQKLSQDLAGFLGNSIAALEKPLSEIETDFSAYQIPTEPKFVSDYADEIMQNLVAHSVHTSAPSFIGHMTSALPYFVLPLSKMMVGLNQNLVKIETSKAFTPLERQVLGMMHNLVYQQSDDFYHQWMHSANHSLGAFCSGGTVANITALWIARNRLLQPRGDFKGVTREGMTKALRFYGYDDLAILVSDRGHYSLGKTADLLGIGRDNIISIPTDEHHKVDVAAMRDAAEKLAQQNIKVMAIVGIAGTTETGNVDPLTELAALASELNCHFHVDAAWGGASLLSKKYSHLLKGIELADSVTIDAHKQMYVPMGAGMVLFKDPELAKAIVHHAEYILRVGSKDLGSQTLEGSRPGMAMLVHACLQIIGRDGYEILINNSLEKARYFGSIIDQHADFELVTAPELCLLTYRYVPKSVQAILTTALANQDSALVASINELLDGLTQFIQKHQREQGKSFVSRTRIKPAKYLRQPTTVFRVVLANPLTSHQILHDVLTEQVEIAALDSEYLPQLLAL | not soluble
14 | MVKVYAPASSANMSVGFDVLGAAVTPVDGALLGDVVTVEAAETFSLNNLGRFADKLPSEPRENIVYQCWERFCQELGKQIPVAMTLEKNMPIGSGLGSSACSVVAALMAMNEHCGKPLNDTRLLALMGELEGRISGSIHYDNVAPCFLGGMQLMIEENDIISQQVPGFDEWLWVLAYPGIKVSTAEARAILPAQYRRQDCIAHGRHLAGFIHACYSRQPELAAKLMKDVIAEPYRERLLPGFRQARQAVAEIGAVASGISGSGPTLFALCDKPETAQRVADWLGKNYLQNQEGFVHICRLDTAGARVLEN | soluble

Reference: the DeepSol protein solubility set
